Laboratory results published in publication PMC6876712, “MglA functions as a three-state GTPase to control movement reversals of Myxococcus xanthus” (Nature Communications, 2019).

Legend:
[1] = target: T1, MglB (MglB-2 construct, 6xHis tag cleaved by TEV protease) (M. xanthus), Q1DB03; assay: SEC-MALS; MglB at 3 mg/mL in 20 mM Tris pH 7.5, 50 mM NaCl, 10 mM MgCl2; Superdex 75 10/300 GL; details: remark: other sources report otherwise
T1 chain: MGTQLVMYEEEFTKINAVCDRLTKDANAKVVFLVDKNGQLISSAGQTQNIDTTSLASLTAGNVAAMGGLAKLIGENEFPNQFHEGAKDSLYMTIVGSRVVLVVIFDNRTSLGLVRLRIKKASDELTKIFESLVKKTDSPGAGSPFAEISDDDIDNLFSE

[2] = target: T1, MglB (MglB-2 construct, 6xHis tag …); assay: crystal structure; MglA-GTPγS/MglB complex; equimolar MglA and MglB with 20x GTPγS, purified by SEC; crystals in 0.2 M HEPES pH 7, 16% PEG 4000; 2.8 Å; details: remark: other sources report otherwise
[3] = target: the molecule itself; assay: crystal structure; unbound MglB (MglB-1), form 2 crystals in 0.1 M MES pH 6, 0.15 M ammonium sulfate, 15% PEG 4000; 20 molecules in the asymmetric unit; 2.39 Å

B1: MglB (MglB-2 construct, 6xHis tag cleaved by TEV protease), Q1DB03 1-159 (natural protein)
chain: MGTQLVMYEEEFTKINAVCDRLTKDANAKVVFLVDKNGQLISSAGQTQNIDTTSLASLTAGNVAAMGGLAKLIGENEFPNQFHEGAKDSLYMTIVGSRVVLVVIFDNRTSLGLVRLRIKKASDELTKIFESLVKKTDSPGAGSPFAEISDDDIDNLFSE
B1 was tested, and the stoichiometry N [1] was 2 and the stoichiometry N [2] was 2.

B2: MglB (MglB-1 construct, 34-residue N-terminal tag) (natural protein, M. xanthus)
chain: GTQLVMYEEEFTKINAVCDRLTKDANAKVVFLVDKNGQLISSAGQTQNIDTTSLASLTAGNVAAMGGLAKLIGENEFPNQFHEGAKDSLYMTIVGSRVVLVVIFDNRTSLGLVRLRIKKASDELTKIFESLVKKTDSPGAGSPFAEISDDDIDNLFSE
notes: MglB, GAP of MglA, Myxococcus xanthus; residues 133-165 not visible in the crystal; No cleavage of the tag is described
With B2 the “stoichiometry N” value [3] was 4.
